Laboratory results published in IntAct's records for PubMed 23851574.

B1: AP-1 complex subunit gamma-like 2 (Homo sapiens), O75843 (parent)
chain: MVVPSLKLQDLIEEIRGAKTQAQEREVIQKECAHIRASFRDGDPVHRHRQLAKLLYVHMLGYPAHFGQMECLKLIASSRFTDKRVGYLGAMLLLDERHDAHLLITNSIKNDLSQGIQPVQGLALCTLSTMGSAEMCRDLAPEVEKLLLQPSPYVRKKAILTAVHMIRKVPELSSVFLPPCAQLLHERHHGILLGTITLITELCERSPAALRHFRKVVPQLVHILRTLVTMGYSTEHSISGVSDPFLQVQILRLLRILGRNHEESSETMNDLLAQVATNTDTSRNAGNAVLFETVLTIMDIRSAAGLRVLAVNILGRFLLNSDRNIRYVALTSLLRLVQSDHSAVQRHRPTVVECLRETDASLSRRALELSLALVNSSNVRAMMQELQAFLESCPPDLRADCASGILLAAERFAPTKRWHIDTILHVLTTAGTHVRDDAVANLTQLIGGAQELHAYSVRRLYNALAEDISQQPLVQVAAWCIGEYGDLLLAGNCEEIEPLQVDEEEVLALLEKVLQSHMSLPATRGYALTALMKLSTRLCGDNNRIRQVVSIYGSCLDVELQQRAVEYDTLFRKYDHMRAAILEKMPLVERDGPQADEEAKESKEAAQLSEAAPVPTEPQASQLLDLLDLLDGASGDVQHPPHLDPSPGGALVHLLDLPCVPPPPAPIPDLKVFEREGVQLNLSFIRPPENPALLLITITATNFSEGDVTHFICQAAVPKSLQLQLQAPSGNTVPARGGLPITQLFRILNPNKAPLRLKLRLTYDHFHQSVQEIFEVNNLPVESWQ
B2: Large envelope protein (Hepatitis B virus genotype D subtype adw (isolate United Kingdom/adyw/1979)), P03139-1 (parent)
chain: MGQNLSTSNPLGFFPDHQLDPAFRANTNNPDWDFNPNKDTWPDANKVGAGAFGLGFTPPHGGLLGWSPQAQGIMQTLPANPPPASTNRQSGRQPTPLSPPLRTTHPQAMHWNSTTFHQTLQDPRVRGLYFPAGGSSSGTVNPVPTTTSPISSIFSRIGDPALNMENITSGFLGPLLVLQAGFFLLTRILTIPQSLDSWWTSLNFLGGTTVCLGQNSQSPISNHSPTSCPPTCPGYRWMCLRRFIIFLFILLLCLIFLLVLLDYQGMLPVCPLIPGSSTTSTGSCRTCTTPAQGISMYPSCCCTKPSDGNCTCIPIPSSWAFGKFLWEWASARFSWLSLLVPFVQWFVGLSPIVWLSVIWMMWYWGPSLYSILSPFLPLLPIFFCLWAYI
partner: B1 chain

Variants of: B1
Settings: with S
In the case of S720A, the “effect of a mutation on the interaction” value is reported as “decreasing interaction strength”.
For R760A, the “effect of a mutation on the interaction” value was “decreasing interaction strength”.
A716G was tested, and the “effect of a mutation on the interaction” value was “decreasing interaction strength”.
In the case of P754A, the “effect of a mutation on the interaction” value is reported as “decreasing interaction strength”.
For R756A, the “effect of a mutation on the interaction” value was “decreasing interaction strength”.
For R756Q, the “effect of a mutation on the interaction” value was “decreasing interaction strength”.
With K719Q the “effect of a mutation on the interaction” value was “decreasing interaction strength”.

Variants of: B2
Settings: with ap1g2_human AP1G2, O75843
In the case of D33A, the “effect of a mutation on the interaction” value is reported as “decreasing interaction strength”.
For W32A, the “effect of a mutation on the interaction” value was “decreasing interaction strength”.
For D31A, the “effect of a mutation on the interaction” value was “decreasing interaction strength”.
F34A was tested, and the “effect of a mutation on the interaction” value was “decreasing interaction strength”.
